Patent US10058586B2, “Use of human small leucine zipper protein in adipocyte differentiation procedure” (Korea University Research and Business Foundation, priority 2013, dated 2018)

Columns and labels:
PPARγ2 and HDAC3 = target: T1, PPARγ2 and HDAC3 (Homo sapiens, UniProt P37231); experiment: GST pull-down of GST-HDAC3, Myc-PPARγ2 and Flag-sLZIP in 293T cells; type: binding; settings: in the presence of ligand (10 nM RZD)
T1 construct: expressed in transfected cells; host or cells: 293T cells
T1 sequence (P37231 1-505): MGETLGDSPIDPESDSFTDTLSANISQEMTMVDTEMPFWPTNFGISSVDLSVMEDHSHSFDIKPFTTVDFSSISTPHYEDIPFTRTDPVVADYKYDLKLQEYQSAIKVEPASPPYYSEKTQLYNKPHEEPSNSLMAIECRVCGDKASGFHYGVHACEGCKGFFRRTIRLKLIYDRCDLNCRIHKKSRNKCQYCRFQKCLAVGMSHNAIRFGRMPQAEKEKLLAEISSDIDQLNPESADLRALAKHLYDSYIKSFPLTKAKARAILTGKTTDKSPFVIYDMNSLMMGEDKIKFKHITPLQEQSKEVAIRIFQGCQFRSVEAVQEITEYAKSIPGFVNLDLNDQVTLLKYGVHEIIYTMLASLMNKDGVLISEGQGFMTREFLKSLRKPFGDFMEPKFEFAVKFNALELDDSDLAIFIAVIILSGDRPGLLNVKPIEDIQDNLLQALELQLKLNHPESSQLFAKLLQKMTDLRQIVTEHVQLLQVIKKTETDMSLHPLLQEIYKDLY
Method: Therefore, in order to understand a regulation mechanism of sLZIP in the PPARγ2 transcriptional activity by binding to the FABP4 promoter region, an effect of sLZIP on the interaction between PPARγ2 and HDAC3 was examined. For this purpose, 293T cells were transfected with GST-HDAC3, Myc-PPARγ2 and Flag-sLZIP, and were treated or not treated with 10 nM of RZD for 24 hours. Cell lysates were subjected to GST pull-down analysis using a glutathione 4B bead, and a protein complex was analyzed in SDS-PAGE, and then immunoblotted with anti-GST, anti-Myc and anti-Flag antibodies (FIG. 6A). GST-HDAC3, GST-PPARγ2, Myc-PPARγ2, Flag-sLZIP and Ha-UB were expressed in the 293T cells, and the cells were treated with 10 nM of RZD for 24 hours. Cell lysates were subjected to GST pull-down analysis (FIG. 6B). GST-PPARγ2 and Flag-sLZIP were expressed in the 293T cells and treated with 10 nM of RZD for 24 hours. Cell lysates were subjected to GST pull-down analysis, and a protein complex was analyzed in SDS-PAGE, and then immunoblotted with anti-PGC1α, anti-GST and anti-Flag antibodies (FIG. 6C).

PPARγ2 = target: T2, PPARγ2 (Homo sapiens, UniProt P37231); experiment: FABP4 enhancer-luciferase reporter analysis of PPARγ2 transcriptional activity in 293T cells; type: cell-based; set-up: expressed in transfected cells; host or cells: 293T cells; settings: sLZIP 0.1 to 0.5 μg, 10 nM RZD
T2 sequence (P37231 1-505): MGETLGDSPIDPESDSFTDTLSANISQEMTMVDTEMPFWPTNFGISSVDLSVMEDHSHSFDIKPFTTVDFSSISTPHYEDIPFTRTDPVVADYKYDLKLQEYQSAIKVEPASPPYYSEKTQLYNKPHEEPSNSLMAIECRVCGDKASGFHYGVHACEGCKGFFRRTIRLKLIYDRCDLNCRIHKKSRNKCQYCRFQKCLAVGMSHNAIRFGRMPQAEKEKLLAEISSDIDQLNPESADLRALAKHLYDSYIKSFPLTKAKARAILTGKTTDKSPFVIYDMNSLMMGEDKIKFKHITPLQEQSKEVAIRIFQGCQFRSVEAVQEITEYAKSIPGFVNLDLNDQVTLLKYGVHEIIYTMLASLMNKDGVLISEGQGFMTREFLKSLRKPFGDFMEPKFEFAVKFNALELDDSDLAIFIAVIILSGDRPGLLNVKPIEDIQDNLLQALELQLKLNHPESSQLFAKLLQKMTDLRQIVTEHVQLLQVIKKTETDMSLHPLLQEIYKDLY
Method: Appropriately transfected cells were washed with cold PBS twice, and a reporter lysis buffer (Promega) was used and lysed in a culture dish. Luciferase analysis was performed using a luciferase analysis system (Promega Corporation, Madison, Wis.). A luciferase activity was recorded in Luminometer 20/20^n (Turner BioSystems, Sunnyvale, Calif.) according to instructions of the manufacturer. The luciferase activity was normalized to a β-galactosidase activity. For β-galactosidase analysis, CMV-β-galactosidase was transfected with luciferase reporter genes. All pieces of data were represented as mean±standard deviation of the results from at least three independent experiments.
A DNA binding ability of sLZIP with various elements in the FABP4 enhancer region was examined. For this purpose, recombinant His-sLZIP fusion proteins (3 μg) were incubated with γ-^32P-labeled oligonucleotide probes containing expected CREB binding elements (FIG. 7B). The γ-^32P-labeled oligonucleotide probes were incubated while an amount of purified His-sLZIPs was increased. […]
Adipocyte differentiation is a well-regulated procedure. […] A promoter activity was measured according to luciferase analysis (FIG. 8B). […] Total RNA was extracted from the cells, and an mRNA expression level of mouse LZIPs was measured using RT-PCR analysis. […]

[1] = test system: multipotential mesenchymal progenitor cells; experiment: Oil red O staining, differentiation of multipotential mesenchymal progenitor cells into adipocytes; type: cell-based; settings: C3H10T1/2 and 3T3-L1 cells

B1: sLZIP: human small leucine-zipper protein, isoform of LZIP, 354 amino acids, no transmembrane domain; GenBank FJ263669, SEQ ID NO: 1 (protein, listed as Homo sapiens)
chain: MELELDAGDQDLLAFLLEESGDLGTAPDEAVRAPLDWALPLSEVPSDWEVDDLLCSLLSPPASLNILSSSNPCLVHHDHTYSLPRETVSMDLESESCRKEGTQMTPQHMEELAEQEIARLVLTDEEKSLLEKEGLILPETLPLTKTEEQILKRVRRKIRNKRSAQESRRKKKVYVGGLESRVLKYTAQNMELQNKVQLLEEQNLSLLDQLRKLQAMVIEISNKTSSSSMYSSDTRGSLPAEHGVLSRQLRALPSEDPYQLELPALQSEVPKDSTHQWLDGSDCVLQAPGNTSCLLHYMPQAPSAEPPLEWPFPDLFSEPLCRGPILPLQANLTRKGGWLPTGSPSVILQDRYSG
- effect on interaction between PPARγ2 and HDAC3 (GST pull-down) (PPARγ2 and HDAC3): enhanced interaction between PPARγ2 and HDAC3
- transcriptional activity of PPARγ2 (FABP4 enhancer-luciferase) (PPARγ2): decreased the transcriptional activity of PPARγ2 in a concentration-dependent manner
- adipocyte differentiation (oil red O staining) [1]: inhibited adipocyte differentiation
